Experimental findings from PMC13195613 (Blood Advances, 2026) are described below.

This test has as its target T1, recombinant activated factor VII (UniProt P08709 61-212; P08709 213-466).
T1 sequence (looked up) 1: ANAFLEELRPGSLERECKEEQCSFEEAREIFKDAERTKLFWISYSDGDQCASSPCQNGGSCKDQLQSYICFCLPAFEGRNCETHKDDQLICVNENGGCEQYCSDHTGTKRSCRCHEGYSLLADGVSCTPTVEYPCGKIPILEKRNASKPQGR
T1 sequence (looked up) 2: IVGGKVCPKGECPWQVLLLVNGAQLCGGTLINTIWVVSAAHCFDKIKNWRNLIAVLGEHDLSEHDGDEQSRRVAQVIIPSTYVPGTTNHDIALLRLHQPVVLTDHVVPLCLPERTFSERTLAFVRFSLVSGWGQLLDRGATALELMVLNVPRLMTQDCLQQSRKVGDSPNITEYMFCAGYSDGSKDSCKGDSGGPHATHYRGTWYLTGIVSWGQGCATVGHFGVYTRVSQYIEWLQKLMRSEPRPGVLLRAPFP
The test is described as follows: BLI.

B1: endothelial cell protein C receptor (receptor)
chain: SQDASDGLQRLHMLQISYFRDPYHVWYQGNASLGGHLTHVLEGPDTNTTIIQLQPLQEPESWARTQSGLQSYLLQFHGLVRLVHQERTLAFPLTIRCFLGCELPPEGSRAHVFFEVAVNGSSFVSFRPERALWQADTQVTSGVVTFTLQQLNAYNRTRYELREFLEDTCVQYVQKHISAENTKGSQTSRSYTS
On to B1, for which the binding result is “binds”.
